{
  "source": "patent US20150315248",
  "biological_target": "gelatin substrate",
  "data": [
    {"protein": "Dif153 (CD2830, hypothetical protein, zinc metallopeptidase), recombinant (protein) DSTTIQQNKDTLSQIVVFPTGNYDKNEANAMVNRLANIDGKYLNALKQNNLKIKLLSGKLTDEKEYAYLKGVVPKGWEGTGKTWDDVPGLGGSTVALRIGFSNKGKGHDAINLELHETAHAIDHIVLNDISKSAQFKQIFAKEGRSLGNVNYLGVYPEEFFAESFAYYYLNQDTNSKLKSACPQTYSFLQNLAK", "values": [
      {"measurement": "fluorimetric analysis of gelatin cleavage", "result": "the recombinant protein has a weak gelatinase/collagenase activity in the presence of zinc, but not in the presence of nickel and copper or in the apo form"}
    ]}
  ]
}
